We go through 12 molecules from patent US20060177894A1 (published 2006).

Test [1] addresses T1, rat lutropin receptor (LHR) (rat, UniProt P16235 27-700). As to the kind of experiment: cell-based or functional assay.
Test [2] deals with T1, rat lutropin receptor (LHR). As to the kind of experiment: inhibition of 125I-hCG binding to CHO cells with rat LHR; from IC50; native β-subunit analog.
Test [3] shares this target. The test is described as follows: LHR binding assay.
For test [4] the target is unchanged. As to the kind of experiment: inhibition of 125I-hCG binding to CHO cells with rat LHR; from IC50; acid-stable hCGβ-S138C analog.
Test [5] has the same target. As to the kind of experiment: LHR binding and signaling assays.

Changes are numbered by the printed parent chain.

T1 sequence (P16235 27-700): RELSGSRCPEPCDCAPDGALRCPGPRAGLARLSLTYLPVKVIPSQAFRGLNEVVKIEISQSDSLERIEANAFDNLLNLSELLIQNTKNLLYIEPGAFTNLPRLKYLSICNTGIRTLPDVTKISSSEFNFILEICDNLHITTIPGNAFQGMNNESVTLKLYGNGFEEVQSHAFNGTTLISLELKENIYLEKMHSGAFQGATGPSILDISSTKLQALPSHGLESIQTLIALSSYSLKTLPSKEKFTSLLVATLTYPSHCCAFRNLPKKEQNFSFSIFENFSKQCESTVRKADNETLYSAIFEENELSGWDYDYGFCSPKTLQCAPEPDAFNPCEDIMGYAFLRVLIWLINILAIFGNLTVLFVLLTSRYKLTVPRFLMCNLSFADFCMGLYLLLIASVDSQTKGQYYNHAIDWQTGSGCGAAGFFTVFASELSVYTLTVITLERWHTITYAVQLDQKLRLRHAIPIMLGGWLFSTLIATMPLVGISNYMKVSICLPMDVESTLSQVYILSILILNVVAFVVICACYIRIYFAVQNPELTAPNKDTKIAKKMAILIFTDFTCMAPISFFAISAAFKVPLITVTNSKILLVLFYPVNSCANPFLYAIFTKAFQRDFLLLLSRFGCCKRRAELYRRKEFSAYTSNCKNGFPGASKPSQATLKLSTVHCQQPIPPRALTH

B1: hCG-αK91E (ligand)
chain 1: not shown
chain 2: SKEPLRPRCRPINATLAVEKEGCPVCITVNTTICAGYCPTMTRVLQGVLPALPQVVCNYRDVRFESIRLPGCPRGVNPVVSYAVALSCQCALCRRSTTDCGGPKDHPLTCDDPRFQDSSSSKAPPPSLPSPSRLPGPSDTPILPQ
notes: mature; heterodimer from COS-7 medium; also called αK91E+hCGβ
B1: in test [1], the “Signal Transduction potency (cAMP accumulation)” value is 1.1 % of hCG. For the same molecule, the “Receptor-Binding potency (percent hCG)” value in test [2] is 4.3 % of hCG. Moreover, the “fold lower affinity than hCG” value in test [3] is around 10 fold.

B2: αM47C + hCGβ-S138C (ligand)
chain 1: not shown
chain 2: B1 chain 2 with S138C
notes: mature; disulfide αCys47-βCys138
On to B2, for which, in test [1], the “Signal transduction potency (cAMP accumulation), acid-stable analog” value is 2.4 % of hCG. Moreover, the “Receptor-Binding potency (percent hCG)” value in test [4] was 4.1 % of hCG.

B3: αL48C + hCGβ-S138C (ligand)
chain 1: not shown
chain 2: B1 chain 2 with S138C
notes: mature; disulfide αCys48-βCys138; also called hCGβS138C+αL48C
For the molecule B3, in test [1], the “Signal transduction potency (cAMP accumulation), acid-stable analog” value was 99 % of hCG. Besides, the “Receptor-Binding potency (percent hCG)” value in test [4] is 66 % of hCG.

B4: αK44C + hCGβ-S138C (ligand)
chain 1: not shown
chain 2: B1 chain 2 with S138C
notes: mature; disulfide αCys44-βCys138
With B4, the “Signal transduction potency (cAMP accumulation), acid-stable analog” value in test [1] is 191 % of hCG. The “Receptor-Binding potency (percent hCG)” value in test [4] is 250 % of hCG.

B5: αR42C + hCGβ-S138C (ligand)
chain 1: not shown
chain 2: B1 chain 2 with S138C
notes: mature; disulfide αCys42-βCys138
Turning to B5, the “Signal transduction potency (cAMP accumulation), acid-stable analog” value in test [1] was 332 % of hCG. Moreover, the “Receptor-Binding potency (percent hCG)” value in test [4] was 327 % of hCG.

B6: αS92C + hCGβ-S138C (ligand)
chain 1: not shown
chain 2: B1 chain 2 with S138C
notes: mature; disulfide αCys92-βCys138
In the case of B6, the “Signal transduction potency (cAMP accumulation), acid-stable analog” value in test [1] is 13 % of hCG. Besides, the “Receptor-Binding potency (percent hCG)” value in test [4] was 28 % of hCG.

B7: αV49C + hCGβ-S138C (ligand)
chain 1: not shown
chain 2: B1 chain 2 with S138C
notes: mature; disulfide αCys49-βCys138
Turning to B7, in test [1], the “Signal transduction potency (cAMP accumulation), acid-stable analog” value is 99 % of hCG. Moreover, in test [4], the “Receptor-Binding potency (percent hCG)” value was 71 % of hCG.

B8: αT46C + hCGβ-S138C (ligand)
chain 1: not shown
chain 2: B1 chain 2 with S138C
notes: mature; disulfide αCys46-βCys138
Consider B8, for which the “Signal transduction potency (cAMP accumulation), acid-stable analog” value in test [1] is 52 % of hCG. For the same molecule, in test [4], the “Receptor-Binding potency (percent hCG)” value is 50 % of hCG.

B9: αS43C + hCGβ-S138C (ligand)
chain 1: not shown
chain 2: B1 chain 2 with S138C
notes: mature; disulfide αCys43-βCys138
Consider B9, for which the “Signal transduction potency (cAMP accumulation), acid-stable analog” value in test [1] was 43 % of hCG. Further, the “Receptor-Binding potency (percent hCG)” value in test [4] is 17 % of hCG.

B10: αK45C + hCGβ-S138C (ligand)
chain 1: not shown
chain 2: B1 chain 2 with S138C
notes: mature; disulfide αCys45-βCys138
Regarding B10, the “Signal transduction potency (cAMP accumulation), acid-stable analog” value in test [1] is 168 % of hCG. The “Receptor-Binding potency (percent hCG)” value in test [4] was 223 % of hCG.

B11: hCG-αCTδ116/135,138C + hCG β-subunit analog with cysteine in place of Asp99 (ligand)
chain 1: not shown
chain 2: B1 chain 2 with N77P, P78N, D99C
notes: also called knob at β-subunit residue 99
Take B11: the binding result in test [5] was “no binding”.

B12: hCG-αCTδ116/135,138C + hCG β-subunit analog with cysteine in place of Arg95 (ligand)
chain 1: not shown
chain 2: B1 chain 2 with N77P, P78N, R95C
notes: also called knob at β-subunit residue 95
Turning to B12, in test [5], the binding result is on record as “no binding”.
